Data from publication PMC4789106 (Biochemistry, 2015).
Like-named read-outs stand apart in the source and are kept apart here.

B1: Y571-R588 peptide of TGFBIp (peptide, UniProt Q15582 571-588, looked up)
peptide: YHIGDEILVSGGIGALVR
B2: Recombinant WT TGFBIp (natural protein, human, UniProt Q15582 24-683, looked up)
chain: GPAKSPYQLVLQHSRLRGRQHGPNVCAVQKVIGTNRKYFTNCKQWYQRKICGKSTVISYECCPGYEKVPGEKGCPAALPLSNLYETLGVVGSTTTQLYTDRTEKLRPEMEGPGSFTIFAPSNEAWASLPAEVLDSLVSNVNIELLNALRYHMVGRRVLTDELKHGMTLTSMYQNSNIQIHHYPNGIVTVNCARLLKADHHATNGVVHLIDKVISTITNNIQQIIEIEDTFETLRAAVAASGLNTMLEGNGQYTLLAPTNEAFEKIPSETLNRILGDPEALRDLLNNHILKSAMCAEAIVAGLSVETLEGTTLEVGCSGDMLTINGKAIISNKDILATNGVIHYIDELLIPDSAKTLFELAAESDVSTAIDLFRQAGLGNHLSGSERLTLLAPLNSVFKDGTPPIDAHTRNLLRNHIIKDQLASKYLYHGQTLETLGGKKLRVFVYRNSLCIENSCIAAHDKRGRYGTLFTMDRVLTPPMGTVMDVLKGDNRFSMLVAAIQSAGLTETLNREGVYTVFAPTNEAFRALPPRERSRLLGDAKELANILKYHIGDEILVSGGIGALVRLKSLQGDKLEVSLKNNVVSVNKEPVAEPDIMATNGVVHVITNVLQPPANRPQERGDELADSALEIFKQASAFSRASQRSVRLAPVYQKLLERMKH

Assays:
[1] = target: the molecule itself; assay: ThT fluorescence fibrillation assay + TEM
[2] = target: the molecule itself; assay: centrifugation and limited trypsin proteolysis of fibrils
Recombinant WT TGFBIp = target: B2; assay: pull-down
[3] = target: B1; assay: pull-down
[4] = target: B1; assay: pull-down

binding result (Recombinant WT TGFBIp)	Binder	binding result [1]	further results
	B1	binds	
binds	A546T FAS1-4 (fourth fasciclin 1 domain of TGFBIp with the A546T substitution) (domain or fragment, human) AGMGTVMDVLKGDNRFSMLVAAIQSAGLTETLNREGVYTVFAPTNETFRALPPRERSRLLGDAKELANILKYHIGDEILVSGGIGALVRLKSLQGDKLEVSLKNNVVSVNKEPVAEPDIMATNGVVHVITNVLQPPANRPQERGDELADSALEIFKQA		binding result [2]: binds
	Transforming growth factor beta-induced protein (TGFBIp) from human corneal stroma extract (natural protein, human (endogenous in corneal stroma), UniProt Q15582 24-683, looked up) GPAKSPYQLVLQHSRLRGRQHGPNVCAVQKVIGTNRKYFTNCKQWYQRKICGKSTVISYECCPGYEKVPGEKGCPAALPLSNLYETLGVVGSTTTQLYTDRTEKLRPEMEGPGSFTIFAPSNEAWASLPAEVLDSLVSNVNIELLNALRYHMVGRRVLTDELKHGMTLTSMYQNSNIQIHHYPNGIVTVNCARLLKADHHATNGVVHLIDKVISTITNNIQQIIEIEDTFETLRAAVAASGLNTMLEGNGQYTLLAPTNEAFEKIPSETLNRILGDPEALRDLLNNHILKSAMCAEAIVAGLSVETLEGTTLEVGCSGDMLTINGKAIISNKDILATNGVIHYIDELLIPDSAKTLFELAAESDVSTAIDLFRQAGLGNHLSGSERLTLLAPLNSVFKDGTPPIDAHTRNLLRNHIIKDQLASKYLYHGQTLETLGGKKLRVFVYRNSLCIENSCIAAHDKRGRYGTLFTMDRVLTPPMGTVMDVLKGDNRFSMLVAAIQSAGLTETLNREGVYTVFAPTNEAFRALPPRERSRLLGDAKELANILKYHIGDEILVSGGIGALVRLKSLQGDKLEVSLKNNVVSVNKEPVAEPDIMATNGVVHVITNVLQPPANRPQERGDELADSALEIFKQASAFSRASQRSVRLAPVYQKLLERMKH		amount of TGFBIp bound, fold against F515-R533 fibrils [3]: ~3 times
	B2		amount of TGFBIp bound, fold against F515-R533 fibrils [4]: ~1.6 times
binds	FSMLVAAIQSAGLTETLNR (peptide, UniProt Q15582 515-533, looked up) [F515-R533 peptide of TGFBIp]	binds	
